This data set deals with the molecule itself. Briefly: negative-stain electron microscopy with single-particle statistical analysis; hDmc1 10 uM without DNA, 25 mM Tris-acetate pH 7.0, 2 mM ATP, 100 mM NaCl, 1 mM DTT, 2 mM CaCl2, 37 C for 30 min then on ice; eigen images and class averages of ring particles.

B1: Human Dmc1 (hDmc1) (natural protein)
chain: MKEDQVVAEEPGFQDEEESLFQDIDLLQKHGINVADIKKLKSVGICTIKGIQMTTRRALCNVKGLSEAKVDKIKEAANKLIEPGFLTAFEYSEKRKMVFHITTGSQEFDKLLGGGIESMAITEAFGEFRTGKTQLSHTLCVTAQLPGAGGYPGGKIIFIDTENTFRPDRLRDIADRFNVDHDAVLDNVLYARAYTSEHQMELLDYVAAKFHEEAGIFKLLIIDSIMALFRVDFSGRGELAERQQKLAQMLSRLQKISEEYNVAVFVTNQMTADPGATMTFQADPKKPIGGHILAHASTTRISLRKGRGELRIAKIYDSPEMPENEATFAITAGGIGDAKE
notes: human Dmc1, a protein of 340 amino acid residues: N-terminal domain 1-81 and core ATPase domain 82-340; Probably the whole 340-residue protein, since both domains (1-81 and 82-340) were docked into the maps; Octameric ring without DNA; helical filament of open length on DNA; also called human meiotic recombinase Dmc1; source: E. coli BLR(DE3), purified (ammonium sulfate precipitation, HisTrap HP, …)
With B1, the “stoichiometry N” value is 8.

The record behind these values is article PMC2797393, “Structure of the hDmc1-ssDNA Filament Reveals the Principles of Its Architecture” (PLoS ONE, 2010).
